Assay results from the supplement of paper PMC12042874.
± gives the uncertainty stated by the source.

Test: amyloid nucleation score (Sup35N fusion, yeast selection) (log enrichment); library NNK1; higher = more nucleation; inactive = no reads after selection
In short: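 Growth for 7 days at 30°C on medium lacking adenine and uracil followed a 24-hour induction with 100 μM copper sulfate of psi-negative yeast expressing peptides of 20 random codons fused to Sup35N. Input and output plasmid inserts were sequenced with Illumina, and sequences with under 100 input reads were excluded. Nucleation score is the DiMSum log enrichment of output over input reads, centred on the mode score of non-aggregating sequences.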

Substance	amyloid nucleation score
SKFSISRTHNSHLSYSGLGG	0.056 ± 0.5
SKGFDDESTAGSFFKLMLLY	-1.9 ± 2.4
SKRLLQL	-0.665 ± 0.87
SKSSRTFLVFSLVWVYNLLM	1.73 ± 0.19
SKSYLVFDNISRRH	-1.11 ± 0.7
SKTGRGTLVMEVSRCEVYDF	0.027 ± 1.7
SKVNISSYNSCFVRKGCQCR	6.328 ± 0.046
SLCTFLGFWGHVFSLRVNRL	-0.156 ± 1.1
SLDRYIREHK	0.635 ± 0.84
SLDYLIFPVLDDGKKYMFVM	1.33 ± 0.46
SLESS	0.642 ± 0.62
SLFHLNFTIRWVDHAADSLV	1.98 ± 0.56
SLGVYGQGSGWMLVVNVWEV	1.97 ± 0.24
SLIRIVSS	0.372 ± 0.52
SLKVTAPTQMGQCVVGGVYH	-0.279 ± 0.88
SLNFPLLSQPAPIFVLSDKG	0.974 ± 0.76
SLPFVTS	-0.319 ± 0.71
SLQHGYVVYVIVFLDATSNT	-0.186 ± 0.86
SLRCQFTSLLSMVCGCSLYG	0.807 ± 0.93
SLRFQSYRAWSMGWKLDDSC	0.821 ± 1.1
SLRITLVWGRMQCGPESVCR	0.745 ± 0.24
SLRMLCRLPSRKDRSWTDML	0.6 ± 0.32

Substance	amyloid nucleation score
SLSAPLNTLVFVVYIQWWEM	0.321 ± 0.71
SLSWEAYRSLLS	1.1 ± 0.23
SLSYFSSFI	inactive
SLVMKVPLFECVCIGMCGRA	0.448 ± 0.52
SLVSGSVGCLGRYQFRESKP	0.422 ± 0.45
SLWIKQLRERVANFLAGFEG	inactive
SLWITFLPLIGLSAVRRRVR	-1.24 ± 1.4
SLWVWRNAWLVHLYRL	-0.206 ± 0.54
SLYKMVMCNGYSCLLLYLVC	0.353 ± 0.97
SLYYEG	0.867 ± 0.45
SLYYGGLQER	-0.02 ± 0.29
SMAGEFWSVLFFCESIWGGD	4.83 ± 0.12
SMCTCLRMGRLPIQVFSWSG	-1.52 ± 2.7
SMGRLP	-1.05 ± 1.5
SMGVMSCNMSWSSAWCVMCV	0.289 ± 0.42
SMGWYGYFLYLNCDDSFPYW	3.79 ± 0.069
SMLDNDTSNMLEMPIGMYVA	inactive
SMRIFMMLQWYRGSNLCFFH	0.537 ± 1.1
SMRRAI	-0.263 ± 1.4
SMSCVVHRGSSASCWMFYRN	0.784 ± 0.37
SMSHVWL	-1.25 ± 1.5
SMVLFGRISWIGEVLLL	4.99 ± 0.089

Substance	amyloid nucleation score
SMVLKTTDAGDNLHSKCNML	-1.09 ± 0.68
SMYFQRP	0.53 ± 0.26
SMYVYDRGTGILLSCGVYFF	1.82 ± 0.11
SNALVFNFSRHAFVNIVFVY	4.04 ± 0.13
SNATVGQPRYNVRTGKAGCE	0.351 ± 0.48
SNEVSGLVCQLTNVVYLLGL	4.89 ± 0.052
SNFGCFYCLLIPRNKKLGLG	1.67 ± 0.47
SNFGIIYM	inactive
SNLLTCPKYFVVTFFCL	0.211 ± 0.26
SNMSHLNRG	0.649 ± 0.75
SNNDFLTSPAFGLLTG	0.066 ± 0.45
SNSFALALLPGGT	0.275 ± 0.75
SNSGIKGFGGMIPRV	3.92 ± 0.1
SNSNTIP	-0.676 ± 0.98
SNVVNFDNNEDYLDTCRYLI	0.734 ± 0.97
SNYFVSVDRGIWSCCYMCSF	7.474 ± 0.063
SNYYWVAWGDSPLQVHP	0.626 ± 0.81
SPFASVEEFELL	0.124 ± 0.33
SPIVGTLFYFMLWNMSAHTR	1.96 ± 0.26
SPLMRFFSTDSGARIFLNMS	-0.388 ± 0.52
SPLSYAI	1.36 ± 0.58
SPPSSNIFPCI	0.052 ± 0.69

Substance	amyloid nucleation score
SQFLLYSPINFLCFAENHNG	6.36 ± 0.078
SQLNCIDRTMGYDDRMEIRS	0.014 ± 0.42
SQQVHISNVHVLYLRWWTGC	0.696 ± 0.74
SRATVSFVSLGNLTFGTILC	1.72 ± 0.36
SRFNSWLCCEND	1.76 ± 0.35
SRGFDHITFF	-0.677 ± 1.2
SRGITRQFESHTCAEHRCGS	-0.252 ± 0.97
SRHFFTAKCQRPRFLWKSDR	-0.172 ± 1.2
SRIFRKLHYSTWIQMRGLCP	-0.431 ± 0.28
SRKVLTPVSPVSVRAARVGH	-0.979 ± 1.9
SRLEKKGNWPVYSTQAVWMT	-0.421 ± 0.42
SRLIY	-0.894 ± 0.4
SRLMV	0.547 ± 0.71
SRMLAVKFKLVVTNCCVKLI	-0.598 ± 1.4
SRPHTVWDMC	0.245 ± 0.32
SRPYLLRLR	0.455 ± 0.57
SRRCLLKNISSPCF	-1.82 ± 0.87
SRVCYNRWLKLWDSDRPVIG	-0.001 ± 0.36
SRVRHFVSFFTV	-0.333 ± 0.58
SRVSFLNFWN	4.27 ± 0.15
SSAVD	0.329 ± 1.1
SSCKWSSKPAHEFQVMTAPT	-0.007 ± 0.65
